Experiment [1] has as its target VSV M protein (form used not stated; discussion of Example 9, data not shown) (vesicular stomatitis virus, UniProt P03519 1-229). The experiment can be described thus: far-western blot presumably; data not shown.
In experiment [2] the target is T1, gst alone (glutathione-S-transferase expressed from pGEX-2TK) (UniProt P08515 1-218 = GST). As to the kind of experiment: far-western blot, 32P-labelled gst probe on bacterial extract.
Experiment [3] has as its target T1, gst alone (glutathione-S-transferase …). As to the kind of experiment: far-western blot, 32P-labelled gst probe.

T1 sequence (P08515 whole entry): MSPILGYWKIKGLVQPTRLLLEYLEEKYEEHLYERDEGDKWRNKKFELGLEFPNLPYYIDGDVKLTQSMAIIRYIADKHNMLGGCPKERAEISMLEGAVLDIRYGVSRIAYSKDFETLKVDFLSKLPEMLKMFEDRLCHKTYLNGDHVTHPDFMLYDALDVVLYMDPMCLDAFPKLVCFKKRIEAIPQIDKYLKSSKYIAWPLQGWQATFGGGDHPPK

For the molecule TGLPTPWTVRYSKSKKREYFFNPETKHSQWEEPEG (other, domain: WW) [WW domain from ESS 1], the binding result in experiment [1] is reported as “no binding”.

B1: gstVSVM74WT (gst fused to the N-terminal 74 amino acids of VSV (Ind.) M protein, wild type PY motif) (other)
chain: MSSLKKILGLKGKGKKSKKLGIAPPPYEEDTSMEYAPSAPIDKSYFGVDEMDTYDPNQLRYEKFFFTVKMTVRS
Take B1: the binding result in experiment [2] is “no binding”.

B2: gstRabM69 (gst fused to amino acids 1-69 of the rabies virus M protein) (other)
chain: MNLLRKIVKNRRDEDTQKSSPASAPLDDDDLWLPPPEYVPLKELTGKKNMRNFCINGRVKVCSPNGYSF
As to B2, the binding result in experiment [3] is recorded as “no binding”.

B3: gstRabM52WT (gst fused to amino acids 1-52, wild type, of the rabies virus M protein) (other)
chain: MNLLRKIVKNRRDEDTQKSSPASAPLDDDDLWLPPPEYVPLKELTGKKNMRN
On to B3, for which the binding result in experiment [3] is given as “no binding”.

B4: gstRabM202 (gst fused to amino acids 1-202, full-length, of the rabies virus M protein) (other)
chain: MNLLRKIVKNRRDEDTQKSSPASAPLDDDDLWLPPPEYVPLKELTGKKNMRNFCINGRVKVCSPNGYSFRILRHILKSFDEIYSGNHRMIGLVKVVIGLALSGSPVPEGLNWVYKLRRTFIFQWADSRGPLEGEELEYSQEITWDDDTEFVGLQIRVIAKQCHIQGRVWCINMNPRACQLWSDMSLQTQRSEEDKDSSLLLE
Take B4: the binding result in experiment [3] is recorded as “no binding”.
